Values quoted from earlier work as cited in article PMC4819957.

Target: Pex3 (Homo sapiens) (UniProt P56589)
Sequence of UniProt P56589 (P56589 whole entry): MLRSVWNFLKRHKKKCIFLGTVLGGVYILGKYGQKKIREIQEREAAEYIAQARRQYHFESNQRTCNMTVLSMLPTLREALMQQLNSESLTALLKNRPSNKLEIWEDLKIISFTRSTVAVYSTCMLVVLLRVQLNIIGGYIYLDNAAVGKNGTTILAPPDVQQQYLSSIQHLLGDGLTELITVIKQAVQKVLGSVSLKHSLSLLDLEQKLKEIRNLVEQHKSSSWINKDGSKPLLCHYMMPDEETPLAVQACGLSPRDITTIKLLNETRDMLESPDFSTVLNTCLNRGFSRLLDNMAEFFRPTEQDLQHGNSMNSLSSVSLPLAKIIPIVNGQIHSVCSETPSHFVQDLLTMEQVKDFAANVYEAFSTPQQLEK

## Pex19 (from UniProt P40855)
  Kd: < 10 nM
